Measurements as given in the nanobody polyreactivity screen of Harvey et al. (2022).

Assay: yeast display, Sf9 membrane polyspecificity reagent, FACS + sequencing; frameworks hold sequencing errors
Summary of the method: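 After 36–48 hours of galactose induction, yeast (Saccharomyces cerevisiae BJ5465) displaying a synthetic nanobody library were stained at 4 °C for 1 hour with 10% biotinylated, detergent-solubilized Sf9 membrane reagent. Streptavidin microbeads enriched the stained cells before FACS sorting into low and high (top ~1%) gates on anti-HA and streptavidin fluorescence. Each clone's polyreactivity label reflects its gate of origin.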

Row | Sequence | polyreactivity (PSR sort gate)
1 | QVQLVESGGGLVQAGGSLRLSCAASGITFRFYAMGWYRQAPGKERELVAAITSSGGSTYYADSVKGRFTISRDNAKNTVYLQMNSLKPEDTAVYYCAASYGAPYGYKRYYYWGQGTQVTVSS | high polyreactivity
2 | QVQLVESGGGLVQAGGSLRLSCASSGSTFSYYDMGWYRQAPGKERELVAAISWNGGTTYYADSVKGRFTISRDNAKNTVYLQMNSLKPEDTAVYYCAATWDFYWAPYDSWGQGTQVSVSS | low polyreactivity
3 | QVQLVESGGGLVQAGASLRLSCAASGITLYLYDMGWYRQAPGKERELVASITSDGSTDYADSVKGRFTISRDNAKNTVFLQMNSLKPEDTAVYYCIARVTYSWYRFGRSGDDSWGQGSQVTVSS | low polyreactivity
4 | QDQLVESGGGLVQAGGSLRLTCAASGFNYRRNAMGWYRQAPGKERELVAAITASGGRTYYADSVKGRFTISRDNAKNTVYLQMNSLKPEDTAVDYCARDTAGFTRFSSKYDYWGQGTQVTLSS | high polyreactivity
5 | QVQLVESGGGLVQAGGRLRLSCAASGRIFKTYAMGWYRQAPGKERELVAAISIRGGSTYYAVSVKGRFTISRDNAKNTVYLQMNSLKPEDTAVYYCNALYGRQIVDYDYWGQGTQVTVSS | high polyreactivity
6 | QVQLVESGGGLVQAGGSLRLSCAASGLTFGFNAMGWYRQAPWKERELDAAISSGGSTYYADSVKGRFTISRDNAKNTVYLQMNSLKPEDTAVYYCAKSGGSSQYWYGYWGQGTQVTVSS | high polyreactivity
7 | HVQLVESGGGLVQAGGSLRLSCAASGFIFQSYAMGWYRQAPGKERELVASISASGGSTYYADSVKGRFTISRDNAKNTVYLQMNSLKPEDTAVYYCAAGYWSYWSLRMDYWGQGTQVTVSS | high polyreactivity
8 | QVQLVESGGGLVQAGGSLRLSCAASGRIFYSNAMGWYRQAPGKAWELVATISRRGGRTYSADSVKGRFTLSRDIAKNTVYLQMNSLKPEDTAVYYCNANDRNAGSSRGGRLYDSWGQGTQVTVSS | high polyreactivity
9 | QVQLVESGGGLVQAGVSLRLICAASGLTFQYNAMGWYRQAPGKEREMVASINSGGSTDYADSVKGRFTISRDNAKNTVYLQMNSLKPEDTAVYYCATSGYWYSASYGYEYWGQGTQVTVSS | low polyreactivity
10 | QLQLVESGGGLVQAGGSLRLSCAASGSTQGVYAMGSYRQAPGKERELVAAISRSGGRTYYADSVKGRFTISRDNAKNTVYLQMNSLKPEDTAVYYCAADYYLWVYWYDYWGQGTQVTVSS | high polyreactivity
11 | QVQLVESGGGLVQAGGSLRLSCAASGRIFNRYAMGWYRQAPGKERELVAAISRGGGTNYADSVKGRFTISRDNAKNTVYLQMNSLKPEDTAVYYCAAARGHNVETSTTYDRGDYWGQGTQVTVSS | low polyreactivity
12 | QVQLVESGGGLVQAGGSLRLSCAAYGRTIFFNAMGWYIQAPGKERELVAAISRGGSRTFYADSVKGRFTISRDNAKNTVYFQMNSLKPEDPAVYYCNAVAQSGRYDYWGQGTQVTVPS | high polyreactivity
13 | QVQLVESGGGLVQAGGSLRLSCAASGRIFHRYAMGWYRQAPGKEREFVAAISSRGGSTYYADSLKGRFTISRDTAKNTVDFQINSLKPEETAVYYCAAQIGYRSGEFYYWGQGTQVTVSS | high polyreactivity
14 | QVQLVESGGGLVQAGGSLRLSCAASGSIFSVYAMGWYRPAPGKERELVASITNDGSTNYADSVKGRFTISRDNAKNTVYLQMNSLKPEDTAVYYCNADSYTKLDYWGQGTQVTVSS | low polyreactivity
15 | QVQLVESGGGIVQAGGILRLSSAASGRIFLGYAMGWSRQAPGKERELVASISGPAGSTNYADSVKGRFTISRDNAKNTVYLQMNSLKPEDTAVYYCAAEERYAYRYDYWGQGTQVTVSS | high polyreactivity
16 | QVQLVESGGGLVQAGGSLRLSCAASGNTLYQYAMGWYRQAPGKERELVASITWSGSSTYYADSVKGRFTISRDNAKNTVYVQMNSLKPEDPAVYYCAAYGYHRDYLYDYWGQGTQVTVSS | low polyreactivity
17 | QVQLVESGGGLVQAGGTLRLSCAASGRTFLWNDMGWDRQAPGQERELVAAITGSDGTYADSVKGRFTISRDNAKNTVYLQMNSLKPEDNAVYYCAAETYWFFPWKYDYWGQGTQVTVSS | low polyreactivity
18 | QVQLVESGGGLVQAGGSLRLSCAASGLTFNVYAMGWYRQAPGKERELVAAITRSTGRTYYADSVKGRFTISRDNAKNTVYLQMNSLIPEDTAVYYCNRVSRQYYYQRGFEYDYWGQGTQVTVSS | high polyreactivity
19 | QVQLVESGGGLVQAGGSLRLSCAASGSIFIGYAMGWYRQAPGKERELVASIRNGGSTNYADSVKGRFTISRDNAKNTVYLQMNSLKPEDTAVYYCAGRYPVFLVSFGFDYWGQGTQVTVSS | low polyreactivity
20 | QVQLEESGGGLVQAGGSLRLSCAASGRILYGYAKGSYRQAPGKERELVASITWSGGSTYADSVKGRFTFSRDNAKNTVYLQMNSLKTEDTSVYYCSTRRGQKWQWLTYGYWGQGTQVTVSS | low polyreactivity
21 | QVQLVESGGGLVQAGGSLRLSCAASGFTFKFNTMGWYRQAPGKERELVAANSWRGGDTSYADSVKGRFTISRENAKNTVFLQMYSLKPEDNAVYYCAARSTSIGQRSLHYGYWGQGTQVTVSS | low polyreactivity
